Patent US20240228595A1

Target: SARS-COV-2 Omicron BA.1.1 spike on HIV-1 based pseudovirus (SARS-CoV-2 Omicron BA.1.1) (UniProt P0DTC2)
Experiment: cell-based or functional assay

S309 (Sotrovimab) (antibody)
pseudovirus neutralization, IC50: 0.533 µg/mL
